Like-named read-outs stand apart in the source and are kept apart here.
For “PFKP (phosphofructokinase, platelet isoform): AKT inhibitor X (10 μM, 15 hrs)”, the expression_or_secretion (phosphorylation at S386) was “no change”.
In the case of “PFKP (phosphofructokinase, platelet isoform): K281R”, the degradation_or_half_life (ubiquitination at K281) is reported as “decreases”.
In the case of “PFKP (phosphofructokinase, platelet isoform): S386A”, the degradation_or_half_life (phosphorylation at S386) is reported as “no change”.
For “PFKL (phosphofructokinase, liver isoform): K272R”, the degradation_or_half_life (ubiquitination at K272) was “decreases”.

From PMC7210009
